Reference: patent US20210030841A1 (KEROS THERAPEUTICS, published 2021)
One block for each binder: values may come before it.

Legend:
Test in all cases: SPR, Biacore 3000; receptor captured on chip, ligand in solution
[1] = target: T1, growth differentiation factor 11 (GDF11) (UniProt O95390 299-407)
T1 construct: the embodiments speak of human GDF-11
T1 sequence (looked up): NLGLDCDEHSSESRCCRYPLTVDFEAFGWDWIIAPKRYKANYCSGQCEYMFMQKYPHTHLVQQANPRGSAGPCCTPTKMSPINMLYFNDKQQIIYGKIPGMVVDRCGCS
Source text: (§1) The Biacore 3000 was used to measure the kinetics of the interactions between the ActRIIa variants and the ligands Activin A, Activin B, growth differentiation factor 11 (GDF11), and BMP-9. ActRIIa variants were transiently expressed in HEK293 cells and purified from the conditioned media using Protein-A Sepharose chromatography. The ActRIIa variants were immobilized on the chip (CM4 or CM5) with capture antibodies ([…]) in flow cells 2-4 to ensure proper orientation. Flow cell 1 was used as a reference cell to subtract any nonspecific binding and bulk effects. HBS-EP+ buffer from GE Healthcare™ was used as a running buffer. Each ligand was run in a concentration series at 40 μl/min to avoid mass transport effects. The data was analyzed using Scrubber2 by BioLogic™ Software to calculate the KD of each interaction (Table 5).

[2] = target: T2, Activin A (UniProt P08476 311-426)
T2 construct: the embodiments speak of human activin A
T2 sequence (looked up): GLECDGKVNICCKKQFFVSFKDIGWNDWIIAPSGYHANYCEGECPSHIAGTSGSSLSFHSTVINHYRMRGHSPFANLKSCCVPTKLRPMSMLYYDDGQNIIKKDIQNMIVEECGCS
Source text: as §1

[3] = target: T3, Activin B (UniProt P09529 293-407)
T3 construct: the embodiments speak of human activin B
T3 sequence (looked up): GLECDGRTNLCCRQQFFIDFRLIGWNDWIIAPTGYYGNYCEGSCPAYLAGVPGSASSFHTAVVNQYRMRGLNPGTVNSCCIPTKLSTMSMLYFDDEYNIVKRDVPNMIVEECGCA
Source text: as §1

[4] = target: T4, BMP-9 (UniProt Q9UK05 320-429)
T4 construct: the embodiments speak of human BMP9; also called bone morphogenetic protein 9
T4 sequence (looked up): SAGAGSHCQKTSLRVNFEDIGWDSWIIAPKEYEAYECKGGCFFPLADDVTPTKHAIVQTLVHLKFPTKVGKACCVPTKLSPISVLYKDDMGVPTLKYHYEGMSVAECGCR
Source text: as §1

binding result [1]: binds
B1: ActRIIa/b+ variant (SEQ ID NO: 150) (receptor, not shown: a dimerising Fc or GST)
chain: GAILGRSETQECLFYNANWELERTNQTGVERCEGEKDKRLHCYATWRNISGSIEIVAKGCWLDDFNCYDRTDCVETEENPQVYFCCCEGNMCNEKFSYFPEMEVTQPTS

Kd [2]: 0.31 nM
Kd [1]: 0.114 nM
Kd [3]: 0.088 nM
Kd [4]: 17 nM
B2: ActRIIa/bΔ9 min variant (SEQ ID NO: 6) (receptor, not shown: a dimerising Fc or GST)
chain: AILGRSETQECLFYNANWELDRTNQTGVEPCEGEKDKRLHCFATWKNISGSIEIVKKGCWLDDINCYDRTDCVETKENPQVYFCCCEGNMCNEKFSYFPEMEVTQPTS
notes: Engineered variant of the human ActRIIa extracellular portion
